According to patent US9939430B2, “Platelet analysis” (Dublin City University, priority 2008, dated 2018):
“Also recorded” adds a separate entry of the source.

How the values were obtained:
platelets = experiment: Platelet adhesion from whole blood on protein patterned surfaces (percentage of filled dots); assay type: cell-based, human; settings: 2 μm dots array, four normal donors
Experimental: For the fabrication of protein patterns, specific platelet adhesive proteins or platelet antibodies were directly patterned on bare glass substrates by microcontact printing (FIG. 1a). After protein patterning the rest of the glass substrate was blocked with bovine serum albumin (BSA) to avoid non specific capture in non selected areas. Characterization of the protein pattern was carried out by immunofluorescence to assure good homogenous coverage of the protein pattern FIG. 14(ii) along all the patterned area. Samples were incubated with 1 mL of citrated or hirudinised whole blood for a maximum of 30 minutes.
The same blood sample exposed to a number of identical substrates gave small deviations; lower than 10%, in the platelet adhesion (FIG. 4b). We have quantified the platelet adhesion from whole blood on fibrinogen, vWF and anti-CD42b surfaces for four different normal donors. […]
The probability that a platelet is captured on a single spot depends on the probability that the platelet touches the protein spot, and on the binding affinity of the platelet for the protein matrix. […] We calculated the mean platelet adhesion on antibody, fibrinogen and vWF patterned surfaces on 2 μm and 6 μm dots arrays. […] A mean platelet adhesion of 45%, 10% and 15% were calculated for the antibody, the fibrinogen and the vWF surfaces, respectively. […]

[1] = molecular target: T1, platelet fibrinogen receptor αIIbβ3 (GPIIb/IIIa) (Homo sapiens, UniProt P05106+P08514); experiment: Platelet adhesion to fibrinogen patterned substrate, whole blood preincubated with abciximab in vitro; assay type: cell-based
T1 construct: incubation of whole blood with different doses of abciximab (Reopro®); endogenous in cells; host or cells: platelets in donor whole blood
Description: The single platelet counting method enables high resolution and reproducible platelet adhesion and function assays in contrast with fluorescence measurements of platelet adhesion. The drug abciximab inhibits platelet adhesion to fibrinogen. […] We compare this platelet adhesion quantification method with a classical method which consists on the measure of the fluorescence intensity originated by the platelets adhering to the surface (which have been fluorescently labelled after adhesion took place). […] Subsequently the samples were washed with buffers, fixed and labelled using platelet specific antibodies fluorescently labelled. After the samples were mounted on microscopy glass slides and imaged. (i)-(iii) show single platelet arrays formed on 6 micron fibrinogen dots array; (iv)-(vi) show platelets adhering to 12 micron fibrinogen dots array; (vii)-(ix) show platelets adhering to 24 micron fibrinogen dots array. […] It is more difficult to quantify the number of platelets adhering to the 12 or 24 micron fibrinogen dots. The effect of the drug in platelet adhesion was quantified using two methods, single platelet counting method, and fluorescence method. (B) Graphs showing the fluorescence intensity measured on samples incubated with blood samples preincubated with different doses of abxicimab (x axes units: abciximab concentration (g/mL); y axes units: fluorescence, arbitrary units). (C) Graph showing the percentage of filled (occupied by platelets) dots on 6 microns fibrinogen dots array on samples incubated with blood samples preincubated with different doses of abxicimab (x axes units: abciximab concentration (g/mL); y axes units: percentage of 6 micron fibrinogen dots occupied by platelets).
In parallel flow cytometry is used to quantify the inhibition of fibrinogen-platelet binding resulting from incubation of whole blood with different doses of abciximab (Reopro®). To perform the measurements by flow cytometry, platelets were pre-activated with thrombin-receptor-activating peptide. […]

GP Ilb/IIIa receptor = molecular target: T2, GP Ilb/IIIa receptor (Homo sapiens, UniProt P05106+P08514); experiment: Platelet adhesion on fibrinogen patterned substrate in PCI patients before and after Reopro administration; assay type: in vivo; settings: for platelet adhesion after administration: 0.25 mg/kg dose during PCI
T2 construct: blood samples from 10 cardiovascular patients undergoing Percutaneous Coronary Interventions (PCI); endogenous in cells; host or cells: platelets in blood of PCI patients
Experimental: The above in-vitro results were validated in a small-scale, targeted clinical study conducted at the Clinical Research Centre in Beaumont Hospital. The same protein patterned substrate was tested with blood samples from 10 cardiovascular patients undergoing Percutaneous Coronary Interventions (PCI). Three patients who received a 0.25 mg/kg dose of Reopro® during the procedure had their platelet adhesion measured using the method of the present invention before Reopro® administration (image i of FIG. 10), 10 minutes after Reopro® administration (image ii of FIG. 10), and between 20 and 24 hours after Reopro® administration (image iii of FIG. 10).
Multiple fluorescent dots on the grid indicates presence of adhering platelets (i).

inhibition of platelet adhesion in CVD patients compared to the diabetic patients ([1]; in vitro, 1.5 μg/ml Reopro, CVD patients on aspirin and clopidogrel vs type 2 diabetes patients on aspirin) | platelet adhesion after administration (GP Ilb/IIIa receptor; 20-24 hours after administration) | platelet adhesion after administration (fluorescence images, one subject) (GP Ilb/IIIa receptor; 21 h after administration) | Substance | mean platelet adhesion (platelets) [%] | platelet adhesion to the fibrinogen substrate after abciximab treatment ([1]; blood preincubated with abciximab (20 μg/mL), 2 and 6 μm dot arrays) | Reopro's effects on platelet adhesion across population groups ([1]; in vitro, 1.5 μg/ml Reopro, normal donors, CVD patients, diabetic patients) | platelet adhesion after administration (GP Ilb/IIIa receptor; 10 minutes after administration, listed as Reopro®, 0.25 mg/kg)
 |  |  | fibrinogen | 10 |  |  | 
increased inhibition | increasing adhesion | recovery of adhesiveness | abciximab |  | do not adhere to the fibrinogen substrate | effects appear greater in CVD patients than in normal or diabetic patients | low adhesion; also recorded: limited platelet adhesion
 |  |  | von Willebrand factor [vWF] | 15 |  |  | 
